Reference: paper PMC11757143, “Generation and characterization of OX40-ligand fusion protein that agonizes OX40 on T-Lymphocytes” (Frontiers in Immunology, 2024)
Several values for one entry are separate records, joined by “and”; a condition that tells them apart may be missing. Equal entries are not always repeated.

B1: MBL-scOX40L (ligand)
chain: not shown
notes: extracellular TNF homology domain (THD) of mouse OX40L (Tnfsf4), 51Ser-198Leu; first of three copies; peptide linker; second of three copies; third of three copies; Order N to C: PA, MBL, OX40L, Linker, OX40L, Linker, OX40L, His6; Seen as dimer, trimer and multimers on non-reducing gels; also called OX40L-fusion protein (E); source: Anti PA tag Antibody Beads; not shown: His6, C-terminal, kept
B2: MBL-OX40L (ligand)
chain: not shown
notes: extracellular TNF homology domain (THD) of mouse OX40L (Tnfsf4), 51Ser-198Leu; Seen as dimer, trimer and hexamer on non-reducing gels; also called OX40L-fusion protein (A)
B3: Fc-MBL-OX40L (Fc fusion)
chain: not shown
notes: extracellular TNF homology domain (THD) of mouse OX40L (Tnfsf4), 51Ser-198Leu; Order N to C: Fc, PA, MBL, OX40L; Seen as dimer, hexamer and higher-order multimers on non-reducing gels; also called OX40L-fusion protein (B); not shown: Fc (human IgG1: hinge, CH2, CH3), N-terminal, kept

Biological target: the molecule itself
Experiment: non-reducing SDS-PAGE and immunoblot; recombinant OX40L proteins in Laemmli sample buffer, non-heated/non-reducing, SDS-PAGE, immunoblot with anti-PA tag antibody; oligomers judged by molecular weight

Protein	stoichiometry N
B1	2 and 3
B2	2 and 3 and 6
B3	2 and 6
